Experimental data: patent US20150344570A1 (published 2015)

T1: FcγRIIb extracellular domain with C-terminal His tag (human, UniProt P31994 43-217)
T1 construct: extracellular domain; Soluble receptor used as analyte in Biacore; also called FcgRIIb; CD32B
T1 sequence (looked up): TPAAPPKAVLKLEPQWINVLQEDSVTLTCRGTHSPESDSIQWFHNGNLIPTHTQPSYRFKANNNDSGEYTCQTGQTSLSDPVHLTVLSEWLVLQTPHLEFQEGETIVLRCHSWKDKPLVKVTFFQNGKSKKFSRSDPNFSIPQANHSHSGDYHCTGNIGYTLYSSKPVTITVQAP

T2: FcγRIIa H (FcgRIIa type H, His at position 131), extracellular domain with C-terminal His tag (human, UniProt P12318 34-217)
T2 construct: extracellular domain; also called 2aH; FcgRIIa H; not shown: His tag at the C terminus
T2 sequence (looked up): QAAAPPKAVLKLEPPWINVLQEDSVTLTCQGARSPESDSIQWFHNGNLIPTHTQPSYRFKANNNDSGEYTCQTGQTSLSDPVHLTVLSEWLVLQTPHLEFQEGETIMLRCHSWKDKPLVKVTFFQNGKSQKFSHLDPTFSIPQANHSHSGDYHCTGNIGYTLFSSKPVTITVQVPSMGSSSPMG

T3: FcγRIIb, extracellular domain with C-terminal His tag (human, UniProt P31994 43-217)
T3 construct: extracellular domain; also called 2b; FcgRIIb; not shown: His tag at the C terminus
T3 sequence (looked up): T1 sequence (looked up)

B1: GpH7-A5/GpH7-B3 variant E269_01G/GpL16-k0 (antibody, human IgG1, kappa)
heavy 1: not shown
heavy 2: not shown
light: DIVMTQSPLSLPVTPGEPASISCQASESLVHSNRNTYLHWYLQKPGQSPQLLIYKVSNRFSGVPDRFSGSGSGTDFTLKISRVEAEDVGVYYCSQNTHVPPTFGQGTKVEIERTVAAPSVFIFPPSDEQLKSGTASVVCLLNNFYPREAKVQWKVDNALQSGNSQESVTEQDSKDSTYSLSSTLTLSKADYEKHKVYACEVTHQGLSSPVTKSFNRGEC
notes: Heterodimerized anti-glypican-3 IgG1; mutation in the GpH7-B3 chain only; also called He Ab E269G
B2: GpH7-A5/GpH7-B3 variant E269_04F/GpL16-k0 (antibody, human IgG1, kappa)
heavy 1: not shown
heavy 2: not shown
light: B1 light
notes: Heterodimerized anti-glypican-3 IgG1; mutation in the GpH7-B3 chain only; also called He Ab E269F
B3: GpH7-A5/GpH7-B3 variant E269_02A/GpL16-k0 (antibody, human IgG1, kappa)
heavy 1: not shown
heavy 2: not shown
light: B1 light
notes: Heterodimerized anti-glypican-3 IgG1; mutation in the GpH7-B3 chain only; also called He Ab E269A
B4: GpH7-A5/GpH7-B3 variant E269_03V/GpL16-k0 (antibody, human IgG1, kappa)
heavy 1: not shown
heavy 2: not shown
light: B1 light
notes: Heterodimerized anti-glypican-3 IgG1; mutation in the GpH7-B3 chain only; also called He Ab E269V
B5: GpH7-A5/GpH7-B3 variant S267_01G/GpL16-k0 (antibody, human IgG1, kappa)
heavy 1: not shown
heavy 2: not shown
light: B1 light
notes: He Ab; alteration in one H chain only; also called He Ab
B6: GpH7-A5/GpH7-B3 variant V266_16H/GpL16-k0 (antibody, human IgG1, kappa)
heavy 1: not shown
heavy 2: not shown
light: B1 light
notes: as for B5
B7: GpH7-A5/GpH7-B3 variant P271_09D/GpL16-k0 (antibody, human IgG1, kappa)
heavy 1: not shown
heavy 2: not shown
light: B1 light
notes: as for B5
B8: GpH7-A5/GpH7-B3 variant P271_14T/GpL16-k0 (antibody, human IgG1, kappa)
heavy 1: not shown
heavy 2: not shown
light: B1 light
notes: as for B5
B9: GpH7-A5/GpH7-B3 variant S267_05P/GpL16-k0 (antibody, human IgG1, kappa)
heavy 1: not shown
heavy 2: not shown
light: B1 light
notes: as for B5
B10: GpH7-A5/GpH7-B3 variant H268_13S/GpL16-k0 (antibody, human IgG1, kappa)
heavy 1: not shown
heavy 2: not shown
light: B1 light
notes: as for B5
B11: GpH7-A5/GpH7-B3 variant H268_02A/GpL16-k0 (antibody, human IgG1, kappa)
heavy 1: not shown
heavy 2: not shown
light: B1 light
notes: as for B5
B12: GpH7-A5/GpH7-B3 variant S267_07I/GpL16-k0 (antibody, human IgG1, kappa)
heavy 1: not shown
heavy 2: not shown
light: B1 light
notes: as for B5
B13: GpH7-A5/GpH7-B3 variant Y300_10E/GpL16-k0 (antibody, human IgG1, kappa)
heavy 1: not shown
heavy 2: not shown
light: B1 light
notes: as for B5
B14: GpH7-A5/GpH7-B3 variant H268_19Q/GpL16-k0 (antibody, human IgG1, kappa)
heavy 1: not shown
heavy 2: not shown
light: B1 light
notes: as for B5
B15: GpH7-A5/GpH7-B3 variant S267_19Q/GpL16-k0 (antibody, human IgG1, kappa)
heavy 1: not shown
heavy 2: not shown
light: B1 light
notes: as for B5
B16: GpH7-A5/GpH7-B3 variant H268_09D/GpL16-k0 (antibody, human IgG1, kappa)
heavy 1: not shown
heavy 2: not shown
light: B1 light
notes: as for B5
B17: GpH7-A5/GpH7-B3 variant S267_15Y/GpL16-k0 (antibody, human IgG1, kappa)
heavy 1: not shown
heavy 2: not shown
light: B1 light
notes: as for B5
B18: GpH7-A5/GpH7-B3 variant S267_14T/GpL16-k0 (antibody, human IgG1, kappa)
heavy 1: not shown
heavy 2: not shown
light: B1 light
notes: as for B5
B19: GpH7-A5/GpH7-B3 variant V266_19Q/GpL16-k0 (antibody, human IgG1, kappa)
heavy 1: not shown
heavy 2: not shown
light: B1 light
notes: as for B5
B20: GpH7-A5/GpH7-B3 variant S267_02A/GpL16-k0 (antibody, human IgG1, kappa)
heavy 1: not shown
heavy 2: not shown
light: B1 light
notes: as for B5
B21: GpH7-A5/GpH7-B3 variant P271_10E/GpL16-k0 (antibody, human IgG1, kappa)
heavy 1: not shown
heavy 2: not shown
light: B1 light
notes: as for B5
B22: GpH7-A5/GpH7-B3 variant S267_06M/GpL16-k0 (antibody, human IgG1, kappa)
heavy 1: not shown
heavy 2: not shown
light: B1 light
notes: as for B5
B23: GpH7-A5/GpH7-B3 variant S267_08L/GpL16-k0 (antibody, human IgG1, kappa)
heavy 1: not shown
heavy 2: not shown
light: B1 light
notes: as for B5
B24: GpH7-A5/GpH7-B3 variant S267_09D/GpL16-k0 (antibody, human IgG1, kappa)
heavy 1: not shown
heavy 2: not shown
light: B1 light
notes: as for B5
B25: GpH7-A5/GpH7-B3 variant K326_03V/GpL16-k0 (antibody, human IgG1, kappa)
heavy 1: not shown
heavy 2: not shown
light: B1 light
notes: as for B5
B26: GpH7-A5/GpH7-B3 variant S267_10E/GpL16-k0 (antibody, human IgG1, kappa)
heavy 1: not shown
heavy 2: not shown
light: B1 light
notes: as for B5
B27: GpH7-A5/GpH7-B3 variant H268_05P/GpL16-k0 (antibody, human IgG1, kappa)
heavy 1: not shown
heavy 2: not shown
light: B1 light
notes: as for B5
B28: GpH7-A5/GpH7-B3 variant S267_04F/GpL16-k0 (antibody, human IgG1, kappa)
heavy 1: not shown
heavy 2: not shown
light: B1 light
notes: as for B5
B29: GpH7-A5/GpH7-B3 variant H268_18N/GpL16-k0 (antibody, human IgG1, kappa)
heavy 1: not shown
heavy 2: not shown
light: B1 light
notes: as for B5
B30: GpH7-A5/GpH7-B3 variant S267_20W/GpL16-k0 (antibody, human IgG1, kappa)
heavy 1: not shown
heavy 2: not shown
light: B1 light
notes: as for B5
B31: GpH7-A5/GpH7-B3 variant S267_16H/GpL16-k0 (antibody, human IgG1, kappa)
heavy 1: not shown
heavy 2: not shown
light: B1 light
notes: as for B5
B32: GpH7-A5/GpH7-B3 variant H268_01G/GpL16-k0 (antibody, human IgG1, kappa)
heavy 1: not shown
heavy 2: not shown
light: B1 light
notes: as for B5
B33: GpH7-A5/GpH7-B3 variant S298_08L/GpL16-k0 (antibody, human IgG1, kappa)
heavy 1: not shown
heavy 2: not shown
light: B1 light
notes: as for B5
B34: GpH7-A5/GpH7-B3 variant K326_02A/GpL16-k0 (antibody, human IgG1, kappa)
heavy 1: not shown
heavy 2: not shown
light: B1 light
notes: as for B5
B35: GpH7-A5/GpH7-B3 variant S267_03V/GpL16-k0 (antibody, human IgG1, kappa)
heavy 1: not shown
heavy 2: not shown
light: B1 light
notes: as for B5
B36: GpH7-A5/GpH7-B3 variant H268_10E/GpL16-k0 (antibody, human IgG1, kappa)
heavy 1: not shown
heavy 2: not shown
light: B1 light
notes: as for B5
B37: GpH7-A5/GpH7-B3 variant V266_20W/GpL16-k0 (antibody, human IgG1, kappa)
heavy 1: not shown
heavy 2: not shown
light: B1 light
notes: as for B5
B38: GpH7-A5/GpH7-B3 variant P271_01G/GpL16-k0 (antibody, human IgG1, kappa)
heavy 1: not shown
heavy 2: not shown
light: B1 light
notes: as for B5

Target: T1, FcγRIIb extracellular domain with …
Assay: SPR Biacore, antibody captured on antigen-peptide chip, FcγR as analyte

He/Con_2b | Binder
51.5 relative, GpH7-A5/GpH7-B3/GpL16-k0 = 100 | B1
45 relative, GpH7-A5/GpH7-B3/GpL16-k0 = 100 | B2
49.9 relative, GpH7-A5/GpH7-B3/GpL16-k0 = 100 | B3
45.1 relative, GpH7-A5/GpH7-B3/GpL16-k0 = 100 | B4

Target: T4, FcγRIa extracellular domain with C-terminal His tag (human, UniProt P12314 16-292)
T4 construct: extracellular domain; Soluble receptor used as analyte in Biacore; also called FcgRI; FcgRIa
T4 sequence (P12314 16-292): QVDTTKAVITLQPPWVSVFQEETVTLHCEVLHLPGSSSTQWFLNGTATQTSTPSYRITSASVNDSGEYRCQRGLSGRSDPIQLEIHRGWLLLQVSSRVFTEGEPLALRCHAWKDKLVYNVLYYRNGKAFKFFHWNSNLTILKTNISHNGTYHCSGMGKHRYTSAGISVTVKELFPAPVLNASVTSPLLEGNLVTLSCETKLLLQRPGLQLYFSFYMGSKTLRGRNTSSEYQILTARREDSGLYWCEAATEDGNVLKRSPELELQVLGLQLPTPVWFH
Assay: as above

He/Con_1a | Binder
104 relative, GpH7-A5/GpH7-B3/GpL16-k0 = 100 | B1
103 relative, GpH7-A5/GpH7-B3/GpL16-k0 = 100 | B2
104 relative, GpH7-A5/GpH7-B3/GpL16-k0 = 100 | B3
103 relative, GpH7-A5/GpH7-B3/GpL16-k0 = 100 | B4

Target: T2, FcγRIIa H (FcgRIIa type H, His at …)
Assay: SPR (Biacore), relative binding, GpH7-A5/GpH7-B3/GpL16-k0 = 100

He/Con_2aH | Binder
71.3 % of control | B5
21.2 % of control | B6
70.1 % of control | B7
60.9 % of control | B8
25.1 % of control | B9
112 % of control | B10
114 % of control | B11
34.7 % of control | B12
97.2 % of control | B13
102 % of control | B14
61.3 % of control | B15
133 % of control | B16
19.6 % of control | B17
63.3 % of control | B18
46.4 % of control | B19
120 % of control | B20
63.1 % of control | B21

He/Con_2aH | Binder
34.3 % of control | B22
29 % of control | B23
105 % of control | B24
97 % of control | B25
102 % of control | B26
81.8 % of control | B27
22.7 % of control | B28
112 % of control | B29
37.9 % of control | B30
29.8 % of control | B31
99.2 % of control | B32
85 % of control | B33
106 % of control | B34
50.8 % of control | B35
124 % of control | B36
12 % of control | B37
107 % of control | B38

Target: T3, FcγRIIb, extracellular domain with …
Assay: as above

He/Con_2b | Binder
105 % of control | B5
57.2 % of control | B6
120 % of control | B7
95.4 % of control | B8
31.5 % of control | B9
160 % of control | B10
167 % of control | B11
192 % of control | B12
134 % of control | B13
133 % of control | B14
218 % of control | B15
239 % of control | B16
37.9 % of control | B17
104 % of control | B18
89.2 % of control | B19
243 % of control | B20
109 % of control | B21

He/Con_2b | Binder
210 % of control | B22
109 % of control | B23
310 % of control | B24
175 % of control | B25
379 % of control | B26
116 % of control | B27
48 % of control | B28
156 % of control | B29
57.2 % of control | B30
65.9 % of control | B31
144 % of control | B32
108 % of control | B33
139 % of control | B34
192 % of control | B35
230 % of control | B36
71.9 % of control | B37
193 % of control | B38

Target: T2, FcγRIIa H (FcgRIIa type H, His at …)
Assay: SPR; He/Con_2aH divided by He/Con_2b (FcγRIIa H binding over FcγRIIb binding)

He_2aH/2b (IIaH/IIb) | Binder
0.68 ratio | B5
0.37 ratio | B6
0.58 ratio | B7
0.64 ratio | B8
0.8 ratio | B9
0.7 ratio | B10
0.68 ratio | B11
0.18 ratio | B12
0.73 ratio | B13
0.77 ratio | B14
0.28 ratio | B15
0.55 ratio | B16
0.52 ratio | B17
0.61 ratio | B18
0.52 ratio | B19
0.49 ratio | B20
0.58 ratio | B21

He_2aH/2b (IIaH/IIb) | Binder
0.16 ratio | B22
0.27 ratio | B23
0.34 ratio | B24
0.55 ratio | B25
0.27 ratio | B26
0.7 ratio | B27
0.47 ratio | B28
0.72 ratio | B29
0.66 ratio | B30
0.45 ratio | B31
0.69 ratio | B32
0.78 ratio | B33
0.76 ratio | B34
0.26 ratio | B35
0.54 ratio | B36
0.17 ratio | B37
0.55 ratio | B38
